Measured values reported in article PMC9926122.

Target: T1, recombinant EB1 (HS-AFM and microtubule experiments) (human), Q15691
T1 chain: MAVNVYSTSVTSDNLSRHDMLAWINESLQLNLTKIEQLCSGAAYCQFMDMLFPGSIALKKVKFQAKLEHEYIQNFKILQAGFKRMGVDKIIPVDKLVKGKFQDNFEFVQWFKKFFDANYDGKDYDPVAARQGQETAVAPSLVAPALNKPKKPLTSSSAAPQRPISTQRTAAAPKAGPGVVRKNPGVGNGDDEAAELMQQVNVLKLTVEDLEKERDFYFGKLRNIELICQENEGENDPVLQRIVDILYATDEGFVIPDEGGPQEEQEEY
Assay: high-speed atomic force microscopy (HS-AFM); proteins (10-30 nM; 10 nM in the frames shown) in BRB80 buffer (80 mM Pipes, 1 mM EGTA, 1 mM MgCl2, pH 6.9) on mica, tapping mode, 150 ms per frame; EB1 alone, Ska1 alone and their mixture
Details: remark: other sources report otherwise

B1: recombinant EB1 (HS-AFM and microtubule experiments), Q15691 1-268 (natural protein)
chain: MAVNVYSTSVTSDNLSRHDMLAWINESLQLNLTKIEQLCSGAAYCQFMDMLFPGSIALKKVKFQAKLEHEYIQNFKILQAGFKRMGVDKIIPVDKLVKGKFQDNFEFVQWFKKFFDANYDGKDYDPVAARQGQETAVAPSLVAPALNKPKKPLTSSSAAPQRPISTQRTAAAPKAGPGVVRKNPGVGNGDDEAAELMQQVNVLKLTVEDLEKERDFYFGKLRNIELICQENEGENDPVLQRIVDILYATDEGFVIPDEGGPQEEQEEY
stoichiometry N: 2
